Test results: US20170174775A1 (published 2017)

Target: T1, IL-RI (Receptor Binding Assay)
T1 construct: The construct used in the RBA is not described; it may be the same as the IL-1R1 fusion protein; also called IL-1RI; IL-1R1
Test: Receptor Binding Assay; inhibition of IL-1 binding to IL-RI

T1 sequence (P14778 whole entry, the tested form may be a part): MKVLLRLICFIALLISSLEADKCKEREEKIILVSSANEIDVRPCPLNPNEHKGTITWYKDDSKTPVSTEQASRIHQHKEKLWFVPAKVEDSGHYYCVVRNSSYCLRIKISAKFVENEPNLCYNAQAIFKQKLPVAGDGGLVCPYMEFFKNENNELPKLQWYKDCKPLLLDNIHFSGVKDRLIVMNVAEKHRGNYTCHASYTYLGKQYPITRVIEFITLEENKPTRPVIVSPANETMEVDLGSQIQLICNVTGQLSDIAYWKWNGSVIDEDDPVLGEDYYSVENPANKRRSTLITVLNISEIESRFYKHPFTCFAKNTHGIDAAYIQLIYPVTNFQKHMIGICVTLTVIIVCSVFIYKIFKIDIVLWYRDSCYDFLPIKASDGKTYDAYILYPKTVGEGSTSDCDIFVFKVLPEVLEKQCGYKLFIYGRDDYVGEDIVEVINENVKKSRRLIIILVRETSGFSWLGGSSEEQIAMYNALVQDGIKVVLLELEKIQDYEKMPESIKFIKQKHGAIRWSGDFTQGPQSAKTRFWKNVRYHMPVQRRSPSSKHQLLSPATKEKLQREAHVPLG

B1: DOM4-130-54 (other)
VL: DIQMTQSPSSLSASVGDRVTITCRASQDIYLNLDWYQQKPGKAPKLLINFGSELQSGVPSRFSGSGYGTDFTLTISSLQPEDFATYYCQPSFYFPYTFGQGTKVEIKR
notes: dAb (VK single variable domain) against IL-1R1; parent
Q: Which IC50 does the source give for B1 here?
A: 0.28 nM

B2: DOM4-130-201 (other)
chain: DIQMTQSPSSLSASVGDRVTITCRASQDIYLNLDWYQQKPGKAPKLLIKFGSELQSGVPSRFSGSGYGTDFTLTISNLQPEDFATYYCQPSFYFPYTFGQGTKVEIKW
Q: For B2, which IC50 is on record?
A: 0.257 nM

B3: DOM4-130-202 (other)
chain: DIQMTQSPSSLSASVGDRVTISCRASQDIYLNLDWYQQKPGKAPKLLISFGSELQSGVPSRFSGSGYGTDFTLTISSLQPEDSATYYCQPSFYYPYTFGQGTKVEIKR
Q: How did the IC50 turn out when B3 was run?
A: 0.254 nM
